How the values were obtained:
[1] = Pharmacokinetics of orally dosed insulin emulsion particles in STZ-treated rats (Example 3), plasma insulin; settings: 5 IU/kg s.c. control
From the text: Parameters were estimated using Watson pharmacokinetic software 7.4.2 (Thermo Electron Corporation) using a non-compartmental approach consistent with the various routes of administration. All parameters were generated from Insulin individual animal concentrations in plasma. Parameters were estimated using nominal sampling times to be relative to the start of each dose administration (within an acceptable tolerance limit).
The area under the test item concentration versus time curve (AUC) was calculated using the linear-log linear trapezoidal method. AUC was not calculated for PK profiles with less than 3 consecutive quantifiable concentrations of test article at separate time points. When practical, the terminal elimination phase of each concentration versus time curve was identified using at least the final three observed concentration values. The slope of the terminal elimination phase was determined using linear regression on the unweighted concentration data. […] The parameters described below were reported to 3 significant figures.

blood glucose [2] = assay: Blood glucose after dosing in STZ type I diabetes model (Example 3); format: in vivo, Sprague-Dawley(SD) rats; settings: 5 IU/kg s.c. control
Description: Animals were monitored for blood glucose levels daily over 10 days using a handheld glucometer to verify the disruption of insulin production. […] Prior to the experimental procedure, animals were weighed and randomized into groups based on body weight. All rats were then fasted for five hours prior to dosing.
Control animals were given 5 IU/kg s.c. or 2.5 IU/kg i.v., while experimental animals were dosed orally with 50 IU/kg of microemulsion particles. Food was returned immediately post-dosage and blood was collected at the indicated time points (15, 30, 30, 60, 90, 120, 150, 180, 210, 240, 270, 300, 480, 720, and 1440) over a 24 hr. period. Whole blood was processed to plasma and analyzed for insulin quantity.
Mean insulin and glucose concentrations from the blood of animals were assessed following dosing of 5 IU/kg subcutaneous insulin, 50 IU/kg per os (p.o., i.e., orally) administered TA-3 (BCC with zinc), 50 IU/kg p.o. administered TA-4 (zinc without BCC), and 50 IU/kg p.o. administered TA-7 (BCC without zinc).

blood glucose [3] = assay: Blood glucose after dosing in STZ type I diabetes model (Example 5); format: in vivo, Sprague-Dawley(SD) rats; settings: 5 IU/kg s.c. control
[4] = in 0.01N HCl; cited from earlier work

## insulin
[1]
  blood insulin levels after s.c. administration: rapid appearance and peak of insulin in the blood
Blood glucose [2]
  blood glucose after s.c. administration: corresponding declines in blood glucose
Blood glucose [3]
  blood glucose concentrations after s.c. injection: drop in blood glucose concentrations beginning just as insulin is detected in the blood
[4]
  solubility: 20 mg/mL

Source: US20190247312A1, “PHARMACEUTICAL PREPARATION FOR DELIVERY OF PEPTIDES AND PROTEINS” (priority 2016, published 2019)
